Results taken from article PMC8575462, “PP2A/B55α substrate recruitment as defined by the retinoblastoma-related protein p107” (eLife, 2021).

B1: GST-p107 R1R2 [not stated] / B55α (PP2A regulatory subunit B55α), endogenous in U-2 OS cells [human (endogenous in U-2 OS)] (parent complex)
chain 1: KVPTCEEVIFPNNFETGNGGNVQGHLPLMPMSPLMHPRVKEVRTDSGSLRRDMQPLSPISVHERYSSPTAGSAKRRLF
chain 2: MAGAGGGNDIQWCFSQVKGAVDDDVAEADIISTVEFNHSGELLATGDKGGRVVIFQQEQENKIQSHSRGEYNVYSTFQSHEPEFDYLKSLEIEEKINKIRWLPQKNAAQFLLSTNDKTIKLWKISERDKRPEGYNLKEEDGRYRDPTTVTTLRVPVFRPMDLMVEASPRRIFANAHTYHINSISINSDYETYLSADDLRINLWHLEITDRSFNIVDIKPANMEELTEVITAAEFHPNSCNTFVYSSSKGTIRLCDMRASALCDRHSKLFEEPEDPSNRSFFSEIISSISDVKFSHSGRYMMTRDYLSVKIWDLNMENRPVETYQVHEYLRSKLCSLYENDCIFDKFECCWNGSDSVVMTGSYNNFFRMFDRNTKRDITLEASRENNKPRTVLKPRKVCASGKRKKDEISVDSLDFNKKILHTAWHPKENIIAVATTNNLYIFQDKVN
B2: Myc-B55α wild type [not stated] / Flag-pRB [not stated] (parent complex)
chain 1: B1 chain 2
chain 2: MPPKTPRKTAATAAAAAAEPPAPPPPPPPEEDPEQDSGPEDLPLVRLEFEETEEPDFTALCQKLKIPDHVRERAWLTWEKVSSVDGVLGGYIQKKKELWGICIFIAAVDLDEMSFTFTELQKNIEISVHKFFNLLKEIDTSTKVDNAMSRLLKKYDVLFALFSKLERTCELIYLTQPSSSISTEINSALVLKVSWITFLLAKGEVLQMEDDLVISFQLMLCVLDYFIKLSPPMLLKEPYKTAVIPINGSPRTPRRGQNRSARIAKQLENDTRIIEVLCKEHECNIDEVKNVYFKNFIPFMNSLGLVTSNGLPEVENLSKRYEEIYLKNKDLDARLFLDHDKTLQTDSIDSFETQRTPRKSNLDEEVNVIPPHTPVRTVMNTIQQLMMILNSASDQPSENLISYFNNCTVNPKESILKRVKDIGYIFKEKFAKAVGQGCVEIGSQRYKLGVRLYYRVMESMLKSEEERLSIQNFSKLLNDNIFHMSLLACALEVVMATYSRSTSQNLDSGTDLSFPWILNVLNLKAFDFYKVIESFIKAEGNLTREMIKHLERCEHRIMESLAWLSDSPLFDLIKQSKDREGPTDHLESACPLNLPLQNNHTAADMYLSPVRSPKKKGSTTRVNSTANAETQATSAFQTQKPLKSTSLSLFYKKVYRLAYLRLNTLCERLLSEHPELEHIIWTLFQHTLQNEYELMRDRHLDQIMMCSMYGICKVKNIDLKFKIIVTAYKDLPHAVQETFKRVLIKEEEYDSIIVFYNSVFMQRLKTNILQYASTRPPTLSPIPHIPRSPYKFPSSPLRIPGGNIYISPLKSPYKISEGLPTPTKMTPRSRILVSIGESFGTSEKFQKINQMVCNSDRVLKRSAEGSNPPKPLKKLRFDIEGSDEADGSKHLPGESKFQQKLAEMTSTRTRMQKQKMNDSMDTSNKEEK

Variants of: B1
Assay: GST pull-down, western blot; U2-OS lysates; triplicate; read off a plot

ratio to parent | Variant
~0.05 | chain 1 R38A, chain 1 K40A
~1 | chain 1 R50A, chain 1 R51A
~0.47 | chain 1 R43A

Variants of: B2
Assay: co-immunoprecipitation (anti-Myc IP), western blot quantitation; 293T cells, co-transfected; read off a plot

ratio to parent | Variant
~0.7 | chain 1 T436A
~1.5 | chain 1 S287A
~1.1 | chain 1 N181A
~1.5 | chain 1 S247A
~0.85 | chain 1 V228A

Further lines, the variant ahead of its results:

Variant | ratio to parent
chain 1 F280A | ~0.5
chain 1 K98A | ~0.65
chain 1 E347A | ~0.55
chain 1 D116A | ~0.35
chain 1 K345A | ~0.65
chain 1 H179A | ~0.8
chain 1 D197K | ~-0.2
chain 1 K48E | ~0.95
chain 1 L225A | ~0.2
chain 1 E283A | ~0.3
